Values of other authors as cited in patent US20080107649A1, “Immunogenic compositions of cyclic peptides derived from the beta-amyloid peptide” (Pevion Biotech Ltd., priority 2004, published 2008).

Conditions: human, in vivo

In the case of “Aβ1-42: β-amyloid peptide of 42 amino acids (SEQ ID NO: 1), predominantly found in the plaques”, the “side effect of inoculation” value is given as “severe side effect of cerebral inflammation in some patients”.
